Test results from the RNAGym collection of RNA variant scans (doi:10.1073/pnas.2313332121).

B1: TPR t1 (parent)
chain: GACCAAUCUGCCCUCAGAGCUCGAGAACAUCUUCGGAUGCAGAGGAGGCAGGCUUCGGUGGCGCGAUAGCGCCAACGUCCUCAACCUCCAAUGCAUCCCACCACAUGAUGAUGCCUGAAGAGCCUUGGUUUUUUG

Variants of: B1
Assay: polymerase ribozyme fitness, log enrichment relative to wild type (log ratio); higher = more active; in vitro selection for triplet polymerase activity
How it was run: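 Only genotypes with ≥10 input reads and ≥1 read per output were kept after Illumina sequencing of input and output libraries. These libraries were PCR-built, transcribed mutants of each subunit of a heterodimeric triplet polymerase ribozyme, each put through one triplicate in vitro selection round with frozen incubation at −7 °C, gel excision of extended constructs, streptavidin-bead capture and RT-PCR. Fitness is a logarithmic ratio of genotype enrichment to wild-type enrichment, from inverse-variance-weighted replicate averages, with the logarithm in base 2.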

Point of comparison: A41U G48U C104A A121G G122A, “polymerase ribozyme fitness (log ratio)” value -3.77. Against it:
- C3U C70U G113C — higher, -3.44
- C72U G93U C115U — higher, -2.06
- C12U G19C A46U U112A — higher, -0.273
- A5C A75G U130G U133A — higher, -0.35
- A2C C8G G48U G71A C101U — higher, -2.14
- C101U G120U — higher, -1.36
- U9C C89A — higher, -0.733
- C11G G93U — higher, 0.289
- C70A G120U — higher, -1.5
- C3U C53U G57C U59A C88G — higher, -2.35
- C64U A66G C86U A95U C99A G117C — lower, -7.47
- A43U C88A U109A — lower, -6.37
- C53G C62U — higher, -0.0991
- G17C G42U C94U U106A — lower, -5.2
- A6G U7A C53U C80G C101A — lower, -5.66
- G71A G93U — higher, -1.52
- A41U C114A — higher, -3.03
- C86A G93C — higher, -2.88
- C76A C102A C123A — higher, -3.55
- G71C C88U A90C C115G — lower, -4.94
- A16U G93A U133A — higher, -2.82
- C28U G44U C56A — lower, -4.15
- U55G C62A — higher, -0.186
- A27U C56G G117U C124G — lower, -4.92
- A84U U132C — higher, -0.244
- C11G G52U C62G U116A — lower, -5.35
- U92A C114A — higher, -3.48
- A5U U92G C104U — higher, -2.44
- C28U G48U — higher, -2.79
- C15U G44A C56A C62A G71C U131A — higher, -3.4
- A5C U129A — higher, -0.548
- G47A U131C — higher, -1.16
- C40A U81C — higher, -1.68
- C72G U81A — higher, -2.98
- A6U C13G G69U C88U C97U G117C C124G U132A — higher, -1.66
- G44A A103G — lower, -6.14
- C34U U109A U130G — lower, -4.69
- U59A C86G C98U — higher, -3.38
- C15U G120C — higher, -0.175
- C11G A16C A29G G45U — lower, -4.19
- C40U G44A C62U — higher, -1.32
- A2G C62A C85A — higher, -3.14
- A29G C53G U87C G113C — higher, -3.02
- G17C G60C — lower, -4.24
- U87G C115U — higher, -0.742
- C11U A43U G61U G63C C72G C88A C89U A111U — lower, -6.46
- G10C A37C — higher, -1.41
- G57C U92G G117A — higher, -3.55
- G61U G110A — higher, -0.469
- G60A G63C G110A G135C — lower, -6.16
- C64U G107U — lower, -5.43
- U30C U106A — higher, -1.11
- A46U C73A — higher, -1.49
- C34U C62G — lower, -6.83
- G44U A84G G120C U130G — higher, -2.91
- U9G U32C G52C — higher, -0.471
- G48U U59C C70G — lower, -6.09
- G122A U130G — higher, -1.01
- C15G G36A — lower, -4.46
- A18C C40U C73U — higher, -2.05
- G93U U112G G120C C123U — higher, -2.5
- A91G C101U — higher, -1.08
- G10C G39C C49G A111U — lower, -4.94
- C34G A46G A91C — lower, -8.04
- G77A C80A G120U — higher, -2.54
- G51A G69C U112A — lower, -5.2
- A18C C56U — higher, -2.56
- A29C C53G U133G — lower, -4.74
- A2G C88A G93A C115A G117U — lower, -6.36
- G60U A111C G122C — higher, -0.82
- C12U C15U G17A A83C C85A G117U — higher, -2.34
- G17A U55A C72A A84G — lower, -5.99
- U21A G52A A75U C115A C124A — higher, 1.07
- A2U C56U — higher, -2.27
- C104U U129C — higher, -0.415
- U54C G61U U116A U131C — higher, -2.5
- C53U C80U U81C — lower, -4.05
- G10C A26G C62G — lower, -4.17
- U78A G135U — higher, -0.889
- U9G A41U A95C — higher, -2.53
- A27G A105U — lower, -4.91
- C31U G120U — lower, -4.56
- G52A G57A — higher, -1.07
